T1: VEGF-165 (VEGFA isoform 165) (Homo sapiens)
T1 chain: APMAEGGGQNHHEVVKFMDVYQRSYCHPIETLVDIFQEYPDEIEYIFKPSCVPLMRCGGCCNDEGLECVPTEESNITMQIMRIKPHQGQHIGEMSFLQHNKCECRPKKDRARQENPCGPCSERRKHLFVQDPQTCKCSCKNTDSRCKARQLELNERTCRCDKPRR


Columns and labels:
[1] = target: T2, VEGF-121 (VEGFA isoform 121) (Homo sapiens, UniProt P15692 SEQ:1-121); experiment: flow; PBSMCT, 37 C; settings: chain copies: 2 (inferred), label: biotin
Experimental: (§1) Truncated and modified variants of the anti-VEGF aptamers of the present disclosure were prepared by LGC Biosearch Technologies (Novato, Calif.), and their binding affinity to corresponding targets were examined. Briefly, the equilibrium binding constants of the enriched libraries were measured using magnetic bead partitioning. Biotinylated anti-VEGF aptamers were conjugated to the 1 μm streptavidin-coated MyOne Streptavidin Cl magnetic beads (Thermo Fisher Scientific, 65002). Binding assays were performed by incubating fixed concentration of anti-VEGF aptamer (0.01 nM) and target protein at concentrations ranging from 10⁻¹² to 10⁻⁸ M in PBSMCT buffer (DPBS, pH 7.2 with 2.5 mM MgCl₂, 1 mM CaCl₂) and 0.01% TWEEN-20) at 37° C. for 90 minutes. Bound target protein was partitioned by magnetic separation and subsequently labeled via fluorescent anti-VEGF or anti-His-tag antibody. The fraction of anti-VEGF aptamer bound was quantified by flow cytometry (BD Accuri C6 Plus). Raw binding data were corrected for nonspecific background binding of target protein to empty magnetic beads. The fraction of bound anti-VEGF aptamer was plotted as a function of protein concentration and a non-linear curve-fitting algorithm (Langmuir one-site binding model) was used to extract equilibrium binding constants (KD values) from the data (FIG. 1).

[2] = target: T1, VEGF-165 (VEGFA isoform 165); experiment: flow; PBSMCT, 37 C; settings: chain copies: 2 (inferred), label: biotin
Experimental: as §1

[3] = target: T2, VEGF-121 (VEGFA isoform 121); experiment: flow; settings: chain copies: 2 (inferred); label: biotin
[4] = target: T3, Angiopoietin-2 (Ang2) (Homo sapiens, UniProt O15123 O15123:19-496); experiment: flow; settings: tags: His tag, R&D Systems 623-AN; label: biotin
T3 sequence (O15123 19-496, one chain of several): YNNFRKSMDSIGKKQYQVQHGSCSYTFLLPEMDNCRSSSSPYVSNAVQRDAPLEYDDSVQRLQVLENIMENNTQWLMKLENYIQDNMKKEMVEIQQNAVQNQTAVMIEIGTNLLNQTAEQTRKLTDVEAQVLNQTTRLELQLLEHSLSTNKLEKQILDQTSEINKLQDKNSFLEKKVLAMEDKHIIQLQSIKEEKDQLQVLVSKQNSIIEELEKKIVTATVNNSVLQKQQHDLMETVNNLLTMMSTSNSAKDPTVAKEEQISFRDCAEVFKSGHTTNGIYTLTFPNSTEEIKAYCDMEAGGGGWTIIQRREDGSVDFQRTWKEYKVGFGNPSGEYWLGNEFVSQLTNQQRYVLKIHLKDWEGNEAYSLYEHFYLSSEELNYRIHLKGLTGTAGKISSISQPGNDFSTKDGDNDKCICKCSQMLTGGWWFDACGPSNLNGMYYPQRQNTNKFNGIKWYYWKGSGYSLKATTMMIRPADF

[5] = target: T3, Angiopoietin-2 (Ang2); experiment: flow; PBSMCT, 37 C; settings: tags: His tag, R&D Systems 623-AN; label: biotin
Experimental: Various mutations and truncated variants of a representative anti-Ang2 aptamer (AMS0525) were obtained and their binding affinity to Ang2 were measured using magnetic bead partitioning. Biotinylated anti-Ang2 aptamers were conjugated to the 1 μm streptavidin-coated MyOne Streptavidin Cl magnetic beads (Thermo Fisher Scientific, 65002). Binding assays were performed by incubating fixed concentration of aptamer (0.01 nM) and Ang2 protein at concentrations ranging from 10⁻¹² to 10⁻⁸ M in PBSMCT buffer (DPBS, pH 7.2 with 2.5 mM MgCl₂, 1 mM CaCl₂) and 0.01% TWEEN-20) at 37° C. for 90 minutes. Bound target protein was partitioned by magnetic separation and subsequently labeled via fluorescent anti-His-tag antibody. The fraction of anti-Ang2 aptamer bound was quantified by flow cytometry (BD Accuri C6 Plus). Raw binding data were corrected for nonspecific background binding of target protein to empty magnetic beads. The fraction of bound anti-Ang2 aptamer was plotted as a function of protein concentration and a non-linear curve-fitting algorithm (Langmuir one-site binding model) was used to extract equilibrium binding constants (KD values) from the data (FIG. 4A).

Binder | Kd [1] [nM] | Kd [2] [nM] | further results
UCCGCUUGCGGAGCAGCUUCUGUAUUCUGC (ssRNA, 2'-F all positions) [AMS0407] | 0.761 |  | 
AUUCUGUCUUUUUAAAUAAUGUCCCCUUGUUGCACAUUACAGAA (ssRNA, 2'-F all positions) [AMS0403] |  | 0.111 | 
UUCUGUCUUUUUAGAUAAUGUCCCCUUGUUGCACAUUACA (ssRNA, 2'-F all positions) [AMS0404] |  | 0.419 | 
CGUGGAGAUGCAUUCUUCGAGAUUGGCUAACACG (ssRNA, 2'-F all positions) [AMS0425.3] | 0.245 | 0.981 | 
CGCUAGUGGCGAACACGUAUAUUUGUGGCGAUGCACUAGCG (ssRNA, 2'-F all positions) [AMS0421.4] | 0.471 | 1.92 | 
AMSB101 (ssRNA, 2'-F all positions) RNA: UUUCGCUAGAUGGCUAACACGUAUAUUUGUGGAGAUGCACUAGCGCGCAUAGAUAAGCCAACAAACGUACAUUCUCUGUUAGUAUUUUCUGCG |  |  | Kd [3]: 0.125 nM; Kd [4]: 0.138 nM
GCCUUAGAUAAGCCAACAAACGUACAUUCUCUGUUAGUAUUUUCAGGC (ssRNA, 2'-F all positions) [AMS0525.3] |  |  | Kd [5]: 0.033 nM
CGCAUAGAUAAGCCAACAAACGUACAUUCUCUGUUAGUAUUUUCUGCG (ssRNA, LNA at 1-4 and 45-48, 2'-F elsewhere) [AMS0525.6] |  |  | Kd [5]: 0.029 nM
CGCAUAGAUAAGCCAACAAACGUACAUUCUCUGUUAGUAUUUUCUGCG (ssRNA, 2'-OMe at 1-4 and 45-48, 2'-F elsewhere) [AMS0525.5] |  |  | Kd [5]: 0.043 nM
GCCGUGGAGAUGCGUUCCGUCGGGAUCGGCUAACACGGC (ssRNA, 2'-F all positions) [AMS0425.11] | 0.124 | 0.349 | 
UUUCGCUAGAUGGCUAACACGUAUAUUUGUGGAGAUGCACUAGCG (ssRNA, 2'-F all positions) [AMS0421] |  |  | Kd ([1]; stem-loop with bulges): 0.045 nM; Kd ([2]; stem-loop with bulges): 0.096 nM
GCUCUUCAGCCCCGCGCCGGGUCCCACUCUGCGCCGCUC (ssRNA, 2'-F all positions) [AMS0401] |  | 0.087 | 
CCGAUAAGCCAACAAACGUACAUUCUCUGUUAGUAUUCGG (ssRNA, 2'-F all positions) [AMS0525.4] |  |  | Kd [5]: > 1 nM
AMSB105 (ssRNA, 2'-F all positions) RNA: CGCAUAGAUAAGCCAACAAACGUACAUUCUCUGUUAGUAUUUUCUGCGCGUGGAGAUGCAUUCUGUCGAAGAUUGGCUAACACG |  |  | Kd [3]: 0.123 nM; Kd [4]: 0.052 nM
UCCGCUUGCGGAGCAUCUUCUGUAUUCUGC (ssRNA, 2'-F all positions) [AMS0408] | 10.1 |  | 
AMS0525 (ssRNA, 2'-F all positions) RNA: GCAUAGAUAAGCCAACAAACGUACAUUCUCUGUUAGUAUUUUCUGCACACCGUCGCUUAGU |  |  | Kd [5]: 0.404 nM
AMSB104 (ssRNA, 2'-F all positions) RNA: CGCAUAGAUAAGCCAACAAACGUACAUUCUCUGUUAGUAUUUUCUGCGUUUCGCUAGAUGGCUAACACGUAUAUUUGUGGAGAUGCACUAGCG |  |  | Kd [3]: 0.087 nM; Kd [4]: 0.159 nM
GCCGUGGAGAUGCGUUCCGUCGAGGAUCGGCUAACACGGC (ssRNA, 2'-F all positions) [AMS0425.12] | 0.126 | 0.678 | 
CCGGCCAUUGGUGGAGAUUAUCCUUUGAGUACGGUUAUUC (ssRNA, 2'-F all positions) [AMS0420] | 0.082 | 0.87 | 
AMSB102 (ssRNA, 2'-F all positions) RNA: CGUGGAGAUGCAUUCUGUCGAAGAUUGGCUAACACGCGCAUAGAUAAGCCAACAAACGUACAUUCUCUGUUAGUAUUUUCUGCG |  |  | Kd [3]: 0.092 nM; Kd [4]: 0.056 nM

Binder | Kd [1] [nM] | Kd [2] [nM] | further results
AMSB106 (ssRNA, 2'-F all positions) RNA: CGCAUAGAUAAGCCAACAAACGUACAUUCUCUGUUAGUAUUUUCUGCGCGCUAGAUGGCUAACACUAUUGUGGAGAUGCACUAGCG |  |  | Kd [3]: 0.043 nM; Kd [4]: 0.031 nM
CCAACCGUGUAUCUGUCUUGCUUGCGGCGGUUUUGUUGUG (ssRNA, 2'-F all positions) [AMS0416] | 0.654 | 29.4 | 
GCGUAGAUGGCUAACACUAUUGUGGAGAUGCACUACGC (ssRNA, 2'-F all positions) [AMS0421.3] | 0.051 | 0.098 | 
UCCGCUUGCGGAGCACCUUCUGUAUUCUGC (ssRNA, 2'-F all positions) [AMS0409] | 14.2 |  | 
CGUGGAGAUGCAUUCUGUCGAGGAUUGGCUAACACG (ssRNA, 2'-F all positions) [AMS0425.1] | 0.294 | 0.356 | 
CGUGGAGAUGCGUUCCGUCGAGGAUCGGCUAACACG (ssRNA, 2'-F all positions) [AMS0425.8] | 0.287 | 0.876 | 
GCUCUUCGGUGUUAACUACCAAUCGUUGAUCGUUUUGCAAAAAAUUCC (ssRNA, 2'-F all positions) [AMS0406] |  | 0.324 | 
GCUCUUCAAUGUUAACUACCAAUCGUUGAUCGUUUUGCAGAAAAUUCC (ssRNA, 2'-F all positions) [AMS0405] |  | 1.01 | 
GCGGAUUGGCUAACACGGUCGACGUGGAGAUGCAUUCCGC (ssRNA, 2'-F all positions) [AMS0430] |  |  | Kd ([1]; stem-loop with bulges): 0.104 nM; Kd ([2]; stem-loop with bulges): 0.176 nM
CGUGGAGAUGCAUUCUGUCGAGGAUUGGCUAACACGCGAA (ssRNA, 2'-F all positions) [AMS0425] | 0.092 | 0.102 | 
GUGCUUCAUAUCCGUCCCCCCCUUGCUGCG (ssRNA, 2'-F all positions) [AMS0402] |  | 0.098 | 
UCCUUAGAUGGCUAACACGUAUAUUUGUGGAGAUGCACUA (ssRNA, 2'-F all positions) [AMS0421.1] | 0.049 | 0.101 | 
CGCUAGAUGGCCUAACACGUAUAUUUGUGGAGAUGGCACUAGCG (ssRNA, 2'-F all positions) [AMS0421.5] | 0.511 | 0.879 | 
GGAAAACAGUAUAAUGUCUUGUUUCUUCUC (ssRNA, 2'-F all positions) [AMS0410] | 11.8 |  | 
GGUUUAUCUUAACUUUCUGCUACGAUACAGUUUUUGUUGA (ssRNA, 2'-F all positions) [AMS0411] | 1.19 |  | 
CGCUAGAUGGCUAACACUAUUGUGGAGAUGCACUAGCG (ssRNA, 2'-OMe at 1-3 and 36-38, 2'-F elsewhere) [AMS0427.1] | 0.047 | 0.092 | 
CGCUAGAUGGCUAACACUAUUGUGGAGAUGCACUAGCG (ssRNA, LNA at 1-3 and 36-38, 2'-F elsewhere) [AMS0427.2] | 0.043 | 0.087 | 
AGUUAUUUGGUGGAGAGGAUCCAUUUAGCUUAUACAAUUC (ssRNA, 2'-F all positions) [AMS0419] | 0.095 | 0.99 | 
CAGGUGGAGAUGCAUUCUGUCGAAGAUUGGCUAACACCUG (ssRNA, 2'-F all positions) [AMS0425.10] | 0.107 | 0.652 | 

Source: patent publication US20220073922, “Aptamers and use thereof” (Aptitude Medical Systems, Inc., published 2022)
